Experimental data reported in the Immune Epitope Database (IEDB).
pKd: −log10 of the molar value.

How the values were obtained:
[1] = biological target: HLA-B*57:01; assay: IEDB peptide-MHC binding, purified MHC/competitive/radioactivity; filed as Kd, often an IC50 or EC50 that approximates it; ≥ and ≤ were set here for values at or beyond the usual limits of such assays
[2] = biological target: HLA-B*58:01; assay: as above
[3] = biological target: HLA-B*40:01; assay: IEDB peptide-MHC binding, purified MHC/direct/fluorescence; filed as Kd, often an IC50 or EC50 that approximates it; ≥ and ≤ were set here for values at or beyond the usual limits of such assays
[4] = biological target: HLA-B*18:01; assay: as above
[5] = biological target: HLA-B*45:06; assay: IEDB peptide-MHC binding, purified MHC/competitive/fluorescence; filed as Kd, often an IC50 or EC50 that approximates it; ≥ and ≤ were set here for values at or beyond the usual limits of such assays; conditions: source organism: Orthohantavirus puumalaense
[6] = biological target: HLA-B*83:01; assay: as above; conditions: source organism: Orthohantavirus puumalaense
[7] = biological target: HLA-B*15:42; assay: as above; conditions: source organism: Orthohantavirus puumalaense
[8] = biological target: HLA-A*11:01; assay: IEDB peptide-MHC binding, purified MHC/competitive/radioactivity; filed as Kd, often an IC50 or EC50 that approximates it; ≥ and ≤ were set here for values at or beyond the usual limits of such assays; conditions: source organism: Dengue virus 3 Martinique/1243/1999
[9] = biological target: HLA-B*51:01; assay: IEDB peptide-MHC binding, purified MHC/direct/fluorescence; filed as Kd, often an IC50 or EC50 that approximates it; ≥ and ≤ were set here for values at or beyond the usual limits of such assays
[10] = biological target: HLA-B*07:02; assay: as above
[11] = biological target: HLA-A*68:02; assay: as above; conditions: source organism: Orthohantavirus andesense
[12] = biological target: HLA-A*02:12; assay: as above; conditions: source organism: Orthohantavirus andesense
[13] = biological target: HLA-A*11:01; assay: as above
[14] = biological target: HLA-A*01:01; assay: as above
[15] = biological target: HLA-A*29:02; assay: as above
[16] = biological target: HLA-B*48:01; assay: as above
[17] = biological target: HLA-B*39:01; assay: as above
[18] = biological target: HLA-B*46:01; assay: as above
[19] = biological target: HLA-B*44:02; assay: as above
[20] = biological target: HLA-A*31:01; assay: as above
[21] = biological target: HLA-A*02:01; assay: as above
[22] = biological target: HLA-A*03:01; assay: as above
[23] = biological target: HLA-B*57:01; assay: as above
[24] = biological target: HLA-B*27:05; assay: as above
[25] = biological target: HLA-A*69:01; assay: as above
[26] = biological target: HLA-B*15:01; assay: as above
[27] = biological target: HLA-B*58:01; assay: as above
[28] = biological target: HLA-A*26:01; assay: IEDB peptide-MHC binding, purified MHC/competitive/fluorescence; filed as Kd, often an IC50 or EC50 that approximates it; ≥ and ≤ were set here for values at or beyond the usual limits of such assays; conditions: source organism: Orthohantavirus andesense
[29] = biological target: HLA-B*51:01; assay: as above; conditions: source organism: Orthohantavirus andesense
[30] = biological target: HLA-B*27:03; assay: as above; conditions: source organism: Orthohantavirus andesense
[31] = biological target: HLA-B*15:17; assay: as above; conditions: source organism: Orthohantavirus andesense
[32] = biological target: HLA-A*26:01; assay: IEDB peptide-MHC binding, purified MHC/direct/fluorescence; filed as Kd, often an IC50 or EC50 that approximates it; ≥ and ≤ were set here for values at or beyond the usual limits of such assays; conditions: source organism: Brucella abortus
[33] = biological target: HLA-B*08:01; assay: as above
[34] = biological target: HLA-B*53:01; assay: IEDB peptide-MHC binding, purified MHC/competitive/radioactivity; filed as Kd, often an IC50 or EC50 that approximates it; ≥ and ≤ were set here for values at or beyond the usual limits of such assays
[35] = biological target: HLA-A*32:01; assay: as above; conditions: source organism: Dengue virus 1 Brazil/97-11/1997
[36] = biological target: HLA-A*02:01; assay: IEDB peptide-MHC binding, purified MHC/competitive/fluorescence; filed as Kd, often an IC50 or EC50 that approximates it; ≥ and ≤ were set here for values at or beyond the usual limits of such assays; conditions: source organism: Entamoeba histolytica HM-1:IMSS
[37] = biological target: HLA-A*02:16; assay: as above; conditions: source organism: Entamoeba histolytica HM-1:IMSS
[38] = biological target: HLA-A*01:01; assay: IEDB peptide-MHC binding, purified MHC/competitive/radioactivity; filed as Kd, often an IC50 or EC50 that approximates it; ≥ and ≤ were set here for values at or beyond the usual limits of such assays; conditions: source organism: Dengue virus 3 Sri Lanka/1266/2000
[39] = source organism: Dengue virus 2 Jamaica/1409/1983
[40] = source organism: Dengue virus 3 Martinique/1243/1999
[41] = source organism: Orthohantavirus hantanense
[42] = source organism: Orthohantavirus andesense
[43] = source organism: Mammarenavirus machupoense
[44] = source organism: Dengue virus 1 Singapore/S275/1990
[45] = source organism: Brucella melitensis
[46] = source organism: Brucella abortus
[47] = source organism: Dengue virus 4 Philippines/H241/1956
[48] = source organism: Mycobacterium tuberculosis
[49] = source organism: Mycobacterium tuberculosis str. Haarlem
[50] = source organism: Mammarenavirus juninense
[51] = source organism: Dengue virus 1 Brazil/97-11/1997
[52] = source organism: Yersinia pestis

Q: AASIILEFFL was tested. Which pKd [1, 39] did it give?
A: 5.64

Q: What about the pKd [2, 39] of the same sequence?
A: 6.44

Q: AELGAFFSI was tested. Which pKd ([3]; source organism: Amur virus) did it give?
A: ≥ 9.00

Q: And the pKd ([4]; source organism: Amur virus)?
A: 7.39

Q: What about the pKd [5] of the same sequence?
A: ≤ 5.30

Q: And the pKd [6]?
A: ≤ 5.30

Q: And the pKd [7]?
A: ≤ 5.30

Q: How did the pKd [8] turn out when ASSMINGVVK was run?
A: 7.41

Q: And the pKd [1, 40]?
A: 4.80

Q: What about the pKd [2, 40] of the same sequence?
A: 5.89

Q: With AVRTDGSNI as the sequence, how does the pKd [9, 41] read?
A: ≤ 4.70

Q: What about the pKd [10, 41] of the same sequence?
A: 6.58

Q: With AYDHGNVIL as the sequence, how does the pKd [11] read?
A: ≤ 4.70

Q: What about the pKd [12] of the same sequence?
A: ≤ 4.70

Q: What about the pKd [13, 42] of the same sequence?
A: ≤ 4.70

Q: And the pKd [14, 42]?
A: ≤ 4.70

Q: And the pKd [15, 42]?
A: ≤ 4.70

Q: What about the pKd [16, 42] of the same sequence?
A: ≤ 4.70

Q: What about the pKd [17, 42] of the same sequence?
A: 7.18

Q: And the pKd [18, 42]?
A: ≤ 4.70

Q: What about the pKd [10, 42] of the same sequence?
A: ≤ 4.70

Q: And the pKd [19, 42]?
A: ≤ 4.70

Q: And the pKd [20, 42]?
A: ≤ 4.70

Q: What about the pKd [3, 42] of the same sequence?
A: ≤ 4.70

Q: And the pKd [4, 42]?
A: ≤ 4.70

Q: And the pKd [21, 42]?
A: ≤ 4.70

Q: What about the pKd [22, 42] of the same sequence?
A: ≤ 4.70

Q: And the pKd [23, 42]?
A: ≤ 4.70

Q: What about the pKd [24, 42] of the same sequence?
A: ≤ 4.70

Q: What about the pKd [25, 42] of the same sequence?
A: ≤ 4.70

Q: And the pKd [26, 42]?
A: ≤ 4.70

Q: And the pKd [27, 42]?
A: ≤ 4.70

Q: And the pKd [28]?
A: ≤ 4.70

Q: What about the pKd [29] of the same sequence?
A: ≤ 4.70

Q: What about the pKd [30] of the same sequence?
A: ≤ 4.70

Q: What about the pKd [31] of the same sequence?
A: ≤ 4.70

Q: How did the pKd [13, 43] turn out when FHEFLSSKL was run?
A: ≤ 4.70

Q: What about the pKd [14, 43] of the same sequence?
A: ≤ 4.70

Q: What about the pKd [16, 43] of the same sequence?
A: ≤ 4.70

Q: And the pKd [17, 43]?
A: 7.14

Q: What about the pKd [18, 43] of the same sequence?
A: ≤ 4.70

Q: What about the pKd [10, 43] of the same sequence?
A: ≤ 4.70

Q: What about the pKd [19, 43] of the same sequence?
A: ≤ 4.70

Q: And the pKd [20, 43]?
A: ≤ 4.70

Q: And the pKd [21, 43]?
A: ≤ 4.70

Q: And the pKd [22, 43]?
A: ≤ 4.70

Q: What about the pKd [23, 43] of the same sequence?
A: ≤ 4.70

Q: And the pKd [24, 43]?
A: ≤ 4.70

Q: And the pKd [26, 43]?
A: ≤ 4.70

Q: What about the pKd [27, 43] of the same sequence?
A: ≤ 4.70

Q: With GASHNILVEV as the sequence, how does the pKd [1, 44] read?
A: 6.11

Q: And the pKd [2, 44]?
A: 5.02

Q: With GGWRLSAQW as the sequence, how does the pKd [1, 40] read?
A: 6.75

Q: How did the pKd [32] turn out when GRDHVRVTL was run?
A: ≤ 4.70

Q: And the pKd [33, 45]?
A: 5.59

Q: And the pKd [13, 46]?
A: ≤ 4.70

Q: And the pKd [14, 46]?
A: ≤ 4.70

Q: And the pKd ([17]; source organism: Brucella suis 1330)?
A: 7.28

Q: What about the pKd [10, 46] of the same sequence?
A: ≤ 4.70

Q: And the pKd [19, 46]?
A: ≤ 4.70

Q: What about the pKd [20, 46] of the same sequence?
A: ≤ 4.70

Q: And the pKd [3, 45]?
A: ≤ 5.30

Q: And the pKd [21, 46]?
A: ≤ 4.70

Q: And the pKd [22, 46]?
A: ≤ 4.70

Q: And the pKd [24, 45]?
A: 6.50

Q: What about the pKd [25, 46] of the same sequence?
A: ≤ 4.70

Q: What about the pKd [26, 46] of the same sequence?
A: ≤ 4.70

Q: And the pKd [27, 46]?
A: ≤ 4.70

Q: GTSETFSMGL was tested. Which pKd [1, 47] did it give?
A: 4.87

Q: IASLVMLLVH was tested. Which pKd [1, 47] did it give?
A: 6.36

Q: And the pKd [2, 47]?
A: 5.76

Q: What does the source list for IGIGVLLTW?
A: pKd [1, 40]: 6.72; pKd [34, 40]: 5.94; pKd [2, 40]: 7.94

Q: QASTTEAILP was tested. Which pKd [1, 40] did it give?
A: 5.71

Q: What about the pKd [2, 40] of the same sequence?
A: 5.82

Q: With QTYMYTGQY as the sequence, how does the pKd [14, 48] read?
A: 6.29

Q: What about the pKd [15, 49] of the same sequence?
A: 7.77

Q: With QVKRREGMF as the sequence, how does the pKd [33, 50] read?
A: 5.81

Q: And the pKd [13, 50]?
A: ≤ 4.70

Q: And the pKd [14, 50]?
A: ≤ 4.70

Q: And the pKd [15, 50]?
A: ≤ 4.70

Q: And the pKd [16, 50]?
A: ≤ 4.70

Q: What about the pKd [18, 50] of the same sequence?
A: ≤ 4.70

Q: And the pKd [10, 50]?
A: ≤ 4.70

Q: What about the pKd [19, 50] of the same sequence?
A: ≤ 4.70

Q: What about the pKd [20, 50] of the same sequence?
A: ≤ 4.70

Q: What about the pKd [3, 50] of the same sequence?
A: ≤ 4.70

Q: What about the pKd [4, 50] of the same sequence?
A: ≤ 4.70

Q: What about the pKd [21, 50] of the same sequence?
A: ≤ 4.70

Q: And the pKd [22, 50]?
A: ≤ 4.70

Q: And the pKd [23, 50]?
A: ≤ 4.70

Q: What about the pKd [24, 50] of the same sequence?
A: ≤ 4.70

Q: What about the pKd [25, 50] of the same sequence?
A: ≤ 4.70

Q: What about the pKd [27, 50] of the same sequence?
A: ≤ 4.70

Q: What does the source list for RVWIEENPW?
A: pKd [1, 51]: 8.57; pKd [35]: 7.24

Q: With SAHSADGHY as the sequence, how does the pKd [14, 48] read?
A: ≤ 4.70

Q: And the pKd [15, 49]?
A: 7.70

Q: With SLKERIDML as the sequence, how does the pKd [36] read?
A: 8.89

Q: What about the pKd [37] of the same sequence?
A: 8.55

Q: TTLSLDYAW was tested. Which pKd [1, 51] did it give?
A: 9.21

Q: What about the pKd [34, 51] of the same sequence?
A: 7.15

Q: What about the pKd [35] of the same sequence?
A: 6.94

Q: What about the pKd [2, 51] of the same sequence?
A: 8.78

Q: How did the pKd [38] turn out when VSSVNMVSRL was run?
A: 4.97

Q: And the pKd ([1]; source organism: Dengue virus 3 Sri Lanka/1266/2000)?
A: 5.99

Q: WANDFNHHY was tested. Which pKd [9, 52] did it give?
A: ≤ 4.70

Q: And the pKd [10, 52]?
A: ≤ 4.70

Q: And the pKd ([26]; source organism: Yersinia pestis CA88-4125)?
A: 7.54
